From patent publication US20250312473A1 (BEONE MEDICINES I, published 2025)
Numbering of substitutions follows the chain as printed. Each block holds one binder with its values, some of them ahead of it.

What was measured:
[1] = biological target: T1, human 4Ig-B7H3 over-expressed on NK92mi cells (human, UniProt Q5ZPR3 29-534); assay: FACS on live NK92mi/B7H3 cells, goat anti-human IgG detection, Test1
T1 construct: Full-length protein on live engineered NK92mi cells; also called NK92mi/B7H3; native B7H3
T1 sequence: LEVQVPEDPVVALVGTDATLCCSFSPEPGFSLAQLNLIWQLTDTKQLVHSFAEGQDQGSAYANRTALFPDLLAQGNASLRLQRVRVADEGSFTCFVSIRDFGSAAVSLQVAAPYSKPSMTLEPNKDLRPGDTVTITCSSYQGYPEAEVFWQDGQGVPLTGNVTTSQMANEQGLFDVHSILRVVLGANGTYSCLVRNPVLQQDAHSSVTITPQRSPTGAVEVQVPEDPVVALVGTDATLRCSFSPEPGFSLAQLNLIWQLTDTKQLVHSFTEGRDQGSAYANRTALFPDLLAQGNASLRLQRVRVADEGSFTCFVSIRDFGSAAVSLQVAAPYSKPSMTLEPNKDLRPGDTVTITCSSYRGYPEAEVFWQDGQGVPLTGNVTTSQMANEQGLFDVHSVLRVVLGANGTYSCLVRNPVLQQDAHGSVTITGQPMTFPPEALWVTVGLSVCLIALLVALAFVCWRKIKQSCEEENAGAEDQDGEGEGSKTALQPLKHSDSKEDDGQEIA
Protocol: (§1) To evaluate the binding activity of humanized antibodies to bind native B7H3 on live cells, NK92mi cells were engineered to over-express human 4Ig-B7H3. Live NK92mi/B7H3 cells were seeded in 96-well plates and were incubated with a series of dilutions of chimeric or humanized antibodies. Goat anti-human IgG was used as second antibody to detect antibody binding to the cell surface. EC₅₀ values for dose-dependent binding to human native B7H3 were determined by fitting the dose-response data to the four-parameter logistic model with GraphPad Prism.

[2] = biological target: T2, ECD of human 4Ig-B7H3 (Sinobiological, Cat: 11188-H08H) (human); assay: SPR, antibody captured on anti-human Fc surface, Test 1
T2 construct: Bought protein; also called human 4Ig-B7H3 ECD
Excerpt: (§2) For affinity determination, antibodies were captured by anti-human Fc surface, and used in an affinity assay based on surface plasmon resonance (SPR) technology.

[3] = biological target: T1, human 4Ig-B7H3 over-expressed on NK92mi …; assay: FACS on live NK92mi/B7H3 cells, goat anti-human IgG detection, Test2
Protocol: as §1

[4] = biological target: T2, ECD of human 4Ig-B7H3 (Sinobiological, …); assay: SPR, antibody captured on anti-human Fc surface, Test 2
Excerpt: as §2

EC50 [1]: 1100 pM | Kd [2]: 394 pM | koff [2]: 0.000284 s⁻¹ | kon [2]: 720000 M⁻¹ s⁻¹
B1: Chimeric BGA-3295 (antibody, V domains shown)
VH: QIQVVQSGPELVKPGSLVKISCKASGYTFTNYDINWVKQRPGQGLEWIGWIYPGDGSAYYNEKFKGKATLTADKSSSTAYMQLSSLTSENSAVYFCARWGYGGVPFAYWGQGTLVTVSA
VL: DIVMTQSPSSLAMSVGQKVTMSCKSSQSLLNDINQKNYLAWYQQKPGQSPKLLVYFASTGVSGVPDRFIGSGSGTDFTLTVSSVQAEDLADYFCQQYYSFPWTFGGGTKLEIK
notes: Murine variable domains of BGA-3295, tested as the chimeric antibody; It was captured on an anti-human Fc surface and detected with anti-human IgG; also called Antibody BGA-3295

EC50 [1]: 940 pM | Kd [2]: 330 pM | koff [2]: 1.04e-05 s⁻¹ | kon [2]: 31500 M⁻¹ s⁻¹ | EC50 [3]: 940 pM | Kd [4]: 615 pM | koff [4]: 0.000227 s⁻¹ | kon [4]: 369000 M⁻¹ s⁻¹
B2: BGA-4348 (antibody, human IgG1, V domains shown)
VH: QIQLVQSGAEVKKPGSSVKVSCKASGYTFTNYDINWVRQAPGQGLEWMGWIYPGDGSAYYNEKFKGRATITADKSTSTAYMELSSLRSEDTAVYYCARWGYGGVPFAYWGQGTLVTVSS
VL: DIVMTQSPDSLAVSLGERATINCKSSQSLLNDINQKNYLAWYQQKPGQSPKLLVYFASTGVSGVPDRFSGSGSGTDFTLTISSLQAEDVAVYYCQQYYSFPWTFGGGTKVEIK
notes: also called humanized antibody BGA-4348; 1st version of humanized antibody; not shown: Human kappa light chain constant region

EC50 [3]: 1150 pM | Kd [4]: 916 pM | koff [4]: 0.000269 s⁻¹ | kon [4]: 294000 M⁻¹ s⁻¹
B3: BGA-5063 (antibody, human IgG1, V domains shown)
VH: B2 VH with I2V, G56A
VL: B2 VL
notes: Derived from BGA-4348 by framework and CDR mutations; also called humanized antibody BGA-5063; not shown: Human kappa light chain constant region
